The values below come from patent US20190194299A1 (Dana-Farber, published 2019).

The chains are these.
T1: Spike (S) protein of live MERS-CoV EMC/2012 (wild type virus) (MERS-CoV, UniProt K9N5Q8 18-1353)
T1 sequence: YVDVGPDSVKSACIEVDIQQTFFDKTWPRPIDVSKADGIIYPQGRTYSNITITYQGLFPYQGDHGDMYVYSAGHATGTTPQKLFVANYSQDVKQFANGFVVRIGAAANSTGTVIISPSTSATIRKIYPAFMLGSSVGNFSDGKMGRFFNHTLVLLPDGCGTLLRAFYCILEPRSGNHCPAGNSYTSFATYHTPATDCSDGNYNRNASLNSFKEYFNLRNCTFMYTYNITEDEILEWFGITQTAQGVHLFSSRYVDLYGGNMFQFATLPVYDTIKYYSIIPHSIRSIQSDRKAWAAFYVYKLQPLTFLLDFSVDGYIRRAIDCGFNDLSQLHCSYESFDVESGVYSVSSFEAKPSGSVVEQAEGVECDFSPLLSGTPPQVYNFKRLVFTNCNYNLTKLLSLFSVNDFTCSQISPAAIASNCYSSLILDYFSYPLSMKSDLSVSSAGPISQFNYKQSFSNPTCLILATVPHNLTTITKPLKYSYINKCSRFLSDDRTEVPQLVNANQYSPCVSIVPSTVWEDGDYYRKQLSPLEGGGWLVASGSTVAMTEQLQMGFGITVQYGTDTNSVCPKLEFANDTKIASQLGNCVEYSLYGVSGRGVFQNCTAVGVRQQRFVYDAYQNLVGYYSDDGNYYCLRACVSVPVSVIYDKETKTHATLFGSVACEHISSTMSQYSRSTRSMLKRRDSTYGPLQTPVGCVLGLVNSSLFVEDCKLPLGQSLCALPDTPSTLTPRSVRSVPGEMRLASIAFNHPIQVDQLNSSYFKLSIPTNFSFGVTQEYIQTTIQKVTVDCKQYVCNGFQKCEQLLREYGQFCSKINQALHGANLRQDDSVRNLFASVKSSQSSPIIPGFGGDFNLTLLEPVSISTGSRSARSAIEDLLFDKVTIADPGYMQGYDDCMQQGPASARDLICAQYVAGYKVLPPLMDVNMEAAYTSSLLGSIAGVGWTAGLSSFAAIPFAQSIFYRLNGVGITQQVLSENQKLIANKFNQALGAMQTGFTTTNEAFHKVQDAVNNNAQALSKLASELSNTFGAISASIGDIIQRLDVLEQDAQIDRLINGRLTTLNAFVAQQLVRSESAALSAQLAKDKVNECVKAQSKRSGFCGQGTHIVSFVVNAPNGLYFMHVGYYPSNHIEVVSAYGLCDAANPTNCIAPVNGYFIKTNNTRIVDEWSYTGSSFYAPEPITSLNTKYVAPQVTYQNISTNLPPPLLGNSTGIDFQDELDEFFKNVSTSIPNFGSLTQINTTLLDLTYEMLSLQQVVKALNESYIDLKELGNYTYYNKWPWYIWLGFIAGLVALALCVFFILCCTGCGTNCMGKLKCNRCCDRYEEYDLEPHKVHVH

B1: 3B12 scFvFc (scFv, V domains shown)
VH: QVQLVQSGAEVKKPGSSVKVSCKASGGTFSSYAISWVRQAPGQGLEWMGGIIPIFGTANYAQKFQGRVTITADKSTSTAYMELSSLRSEDTAVYYCARASYCSTTSCASGAFDIWGQGTLVTVSS
VL: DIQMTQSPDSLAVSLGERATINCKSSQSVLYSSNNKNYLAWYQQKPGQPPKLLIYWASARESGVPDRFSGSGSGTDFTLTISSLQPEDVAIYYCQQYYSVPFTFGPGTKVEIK
B2: 3B11 IgG1 (antibody, V domains shown)
VH: QVQLVQSGAEVKKPGSSVKVSCKASGGTFSSYAISWVRQAPGQGLEWMGGIIPIFGTANYAQKFQGRVTITADKSTSTAYMELSSLRSEDTAVYYCARVGYCSSTSCHIGAFDIWGQGTTVTVSS
VL: ETTLTQSPGTLSLSPGERATLSCRASQSVSSSIAWYQQKPGQAPRLLMFDSSTRATGIPDRFSGSGSGTDFTLNISSLEPEDFAVYYCQQYSSSPYTFGQGTKLEIK
B3: 1F8 scFvFc (scFv, V domains shown)
VH: EVQLVQSGAEVKEPGSSVKVSCKASGGTFGSYAINWVRQAPGQRLEWMGWIDAANGNTKYSQKFQGRVTITGDTSASTAYMELSSLRSEDTAVYYCARDRWMTTRAFDIWGQGTMVTVSS
VL: QPVLTQPPSASGTPGQRVTISCSGSSSNIGSNYVFWYQQLPGMAPKLLISRNNQRPSGVPDRFSGSKSGTSASLAISGPQSEDEADYYCAAWDDSLRGPVFGGGTRVTVL
B4: 1F8 IgG1 (antibody, V domains shown)
VH: EVQLVQSGAEVKEPGSSVKVSCKASGGTFGSYAINWVRQAPGQRLEWMGWIDAANGNTKYSQKFQGRVTITGDTSASTAYMELSSLRSEDTAVYYCARDRWMTTRAFDIWGQGTMVTVSS
VL: QPVLTQPPSASGTPGQRVTISCSGSSSNIGSNYVFWYQQLPGMAPKLLISRNNQRPSGVPDRFSGSKSGTSASLAISGPQSEDEADYYCAAWDDSLRGPVFGGGTRVTVL
B5: 1E9 scFvFc (scFv, V domains shown)
VH: QVQLVQSGGGVVQPGRSLRLSCVASEFTFNTYGMHWVRQAPGKGLEWVAAISYDGTKKFYADSLKGRFTISRDNSKNTLYLQMNSLRSEDTAVYYCARSGDSDAFDIWGQGTMVTVSS
VL: SYELTQPPSVSVSPGQTATITCSGDELGDKFAFWYQQKPGQSPVLVIYQDSKRPSGIPERFSGSNSGNTATLTISGTQALDEADYYCQAWDSNSYVFGTGTKVTVL
B6: 3A1 scFvFc (scFv, V domains shown)
VH: QVQLVQSGAEVKKPGSSVKVSCKASGGTFSSYAVSWVRQAPGQGLEWVGRIIPIFGKANYAQKFQGRVTITADKSTSTAYMELSSLRPEDTAVYYCARDQGISANFKDAFDIWGQGTTVTVSS
VL: ETTLTQSPATLSVSPGERATLSCRASESVGSNLAWYQQKPGQAPSLLIYGASTRATGIPDRFSGSGSGTDFTLTISSLQSEDFAAYYCQQYNNWPLTFGPGTKVEIK
B7: 3A1 IgG1 (antibody, V domains shown)
VH: QVQLVQSGAEVKKPGSSVKVSCKASGGTFSSYAVSWVRQAPGQGLEWVGRIIPIFGKANYAQKFQGRVTITADKSTSTAYMELSSLRPEDTAVYYCARDQGISANFKDAFDIWGQGTTVTVSS
VL: ETTLTQSPATLSVSPGERATLSCRASESVGSNLAWYQQKPGQAPSLLIYGASTRATGIPDRFSGSGSGTDFTLTISSLQSEDFAAYYCQQYNNWPLTFGPGTKVEIK

This experiment concerns the target T1, Spike (S) protein of live MERS-CoV …. The experiment is described as follows: cell-based or functional assay.
With B1, the “IC50 (PRNT50, live wt. virus)” value amounted to 1.25 mg/L.
In the case of B2, the “IC50 (PRNT50, live wt. virus)” value was found to be 3.5 mg/L.
The value for B3 was 6.27 mg/L.
The value for B4 was 4.05 mg/L; that for B5 was 3.21 mg/L; that for B6 was 1.46 mg/L.
On to B7, for which the “IC50 (PRNT50, live wt. virus)” value was 4.5 mg/L.
